Experimental data: the Immune Epitope Database (IEDB)

Key:
[1] = biological target: HLA-A*30:02; experiment: IEDB peptide-MHC binding, purified MHC/competitive/radioactivity; filed as Kd, often an IC50 or EC50 that approximates it; ≥ and ≤ were set here for values at or beyond the usual limits of such assays
[2] = biological target: HLA-B*44:02; experiment: as above
[3] = biological target: HLA-B*08:01; experiment: as above
[4] = biological target: HLA-A*02:01; experiment: IEDB peptide-MHC binding, purified MHC/competitive/fluorescence; ≥ and ≤ were set here for values at or beyond the usual limits of such assays
[5] = biological target: HLA-B*07:02; experiment: IEDB peptide-MHC binding, purified MHC/competitive/radioactivity; filed as Kd, often an IC50 or EC50 that approximates it; ≥ and ≤ were set here for values at or beyond the usual limits of such assays
[6] = biological target: HLA-B*15:01; experiment: as above
[7] = biological target: HLA-A*30:01; experiment: as above
[8] = biological target: HLA-A*01:01; experiment: as above
[9] = biological target: HLA-A*26:01; experiment: as above
[10] = biological target: HLA-B*44:03; experiment: as above
[11] = biological target: HLA-A*24:02; experiment: IEDB peptide-MHC binding, purified MHC/competitive/fluorescence; ≥ and ≤ were set here for values at or beyond the usual limits of such assays
[12] = biological target: HLA-A*26:01; experiment: IEDB peptide-MHC binding, purified MHC/direct/fluorescence; filed as Kd, often an IC50 or EC50 that approximates it; ≥ and ≤ were set here for values at or beyond the usual limits of such assays; details: source organism: Mycobacterium tuberculosis variant bovis
[13] = biological target: HLA-B*39:01; experiment: IEDB peptide-MHC binding, purified MHC/competitive/fluorescence; filed as Kd, often an IC50 or EC50 that approximates it; ≥ and ≤ were set here for values at or beyond the usual limits of such assays; details: source organism: Bacillus anthracis str. A2012
[14] = biological target: HLA-A*11:01; experiment: IEDB peptide-MHC binding, purified MHC/competitive/radioactivity; filed as Kd, often an IC50 or EC50 that approximates it; ≥ and ≤ were set here for values at or beyond the usual limits of such assays; details: source organism: Dengue virus 1 Brazil/97-11/1997
[15] = biological target: HLA-A*24:02; experiment: as above; details: source organism: Dengue virus 2 Jamaica/1409/1983
[16] = biological target: HLA-B*58:01; experiment: IEDB peptide-MHC binding, purified MHC/direct/fluorescence; filed as Kd, often an IC50 or EC50 that approximates it; ≥ and ≤ were set here for values at or beyond the usual limits of such assays; details: source organism: Bacillus cereus
[17] = biological target: HLA-B*57:01; experiment: as above; details: source organism: Bacillus cereus
[18] = source organism: Dengue virus 1 Brazil/97-11/1997
[19] = source organism: Dengue virus 3 Martinique/1243/1999
[20] = source organism: Zaire ebolavirus
[21] = source organism: Dengue virus 4 Philippines/H241/1956
[22] = source organism: Vaccinia virus WR
[23] = source organism: Dengue virus 2 Jamaica/1409/1983
[24] = source organism: Vaccinia virus Copenhagen
[25] = source organism: Dengue virus 4 Dominica/814669/1981

AGGMLIACY showed a Kd [1, 18] of 0.46 µM.

AICSAVPVHW showed a Kd [2, 19] of 2.4 µM.

AIKRKLRTL was tested, and the Kd [3, 18] was 17.3 nM.

For ALSSLAKHG, the IC50 [4, 20] was at least 91.8 µM.

For ALVCGLRQL, the IC50 ([4]; source organism: Sudan ebolavirus) was 22.8 µM.

With APHHKILAKA the Kd [5, 21] was 0.407 µM.

For AQKRTAAGIM, the Kd [6, 18] was 0.0256 µM.

ATKNGNIFV gave a Kd [7, 22] of 0.00385 µM.

For CIAVGMVTLY, the Kd [8, 18] was 1.38 µM and the Kd [9, 18] was 0.483 µM.

Work on CPRKRKTVE yielded a Kd [3, 22] of 581 nM.

Work on DENPYKTWAY yielded a Kd [10, 19] of 0.00864 µM.

Work on ELDLHFQRI yielded a Kd [3, 22] of 3260 nM.

EMADITGSSP was tested, and the Kd [9, 21] was at least 46.7 µM.

Sequence EMAEALKGM has a Kd [9, 18] of 8.32 µM.

For ERPVILSLP, the IC50 ([11]; source organism: Variola virus) was 18.4 µM.

ETKQTGSASS gave a Kd [9, 23] of at least 25 µM.

For ETPNMDVIGE, the Kd [9, 19] was 1.1 µM.

Work on FCIKILNPY yielded a Kd [9, 18] of 7.7 µM.

FGVDGEAGF was tested, and the Kd [12] was at least 20 µM.

With FHMSKPSDL the Kd [13] was 0.0077 µM.

FIYLLFASM gave a Kd [6, 22] of 0.999 µM and a Kd [3, 22] of 1680 nM.

FLKHKYGSL showed a Kd [3, 22] of 0.135 nM.

For FRFEVKKRD, the IC50 [4, 20] was at least 733 µM and the IC50 [11, 20] was 19.5 µM.

Work on FTEENQWDSA yielded a Kd [8, 19] of 0.197 µM.

With FTNMEVQLI the Kd [8, 18] was 5.85 µM.

For FYRKKFRPL, the Kd [3, 22] was 0.0879 nM.

GCGRGGWSY was tested, and the Kd [1, 19] was 0.439 µM.

For GLFLTTEAV, the IC50 ([4]; source organism: Mycobacterium tuberculosis) was 0.05 µM.

Work on GMHMVAGHD yielded an IC50 [4, 20] of 67.8 µM.

Sequence GSLLTCAKFK has a Kd [14] of 0.0968 µM and a Kd [7, 18] of 0.433 µM.

GTTATITPQA showed a Kd ([7]; source organism: Dengue virus 1 Nauru/West Pac/1974) of 0.839 µM.

HTIENTTAN was tested, and the Kd [9, 18] was 2.29 µM.

Work on HVLMHSPLV yielded a Kd [7, 22] of 0.0299 µM.

In the case of IEEVMRSRW, the Kd [10, 18] is reported as 0.0366 µM and the Kd [2, 18] is reported as 0.178 µM.

IESEKNETW showed a Kd [10, 18] of 0.279 µM and a Kd [2, 18] of 0.087 µM.

For IIGRRLQRL, the Kd [3, 21] was 128 nM.

Work on IQNSGGTSIF yielded a Kd [6, 19] of 0.00301 µM.

IQTSGTTTIF showed a Kd [6, 18] of 0.0053 µM.

IRSEELSFT showed an IC50 [4, 20] of at least 2410 µM.

Sequence IRWLGGILP has an IC50 [4, 22] of at least 156 µM and an IC50 [11, 22] of 48.1 µM.

For KCIEYVTLN, the IC50 [4, 24] was at least 125 µM.

With KFLLIHQGM the IC50 [4, 20] was at least 150 µM and the IC50 [11, 20] was 0.256 µM.

KPKGKVVDL was tested, and the Kd [5, 21] was 0.0434 µM and the Kd [3, 21] was 124 nM.

Sequence KQFKQDSKY has a Kd ([6]; source organism: Lymphocytic choriomeningitis virus (strain Armstrong) (clone 53b)) of 0.013 µM.

Sequence KTNTGTIGA has a Kd [7, 23] of 0.00294 µM.

Work on KVKFYKREL yielded a Kd [7, 22] of 0.0419 µM.

Sequence KVLDGSPIS has a Kd [7, 22] of 0.43 µM.

Sequence KVSSKHQLV has a Kd [7, 22] of 0.014 µM.

Work on LAKRFSRGLL yielded a Kd ([3]; source organism: Dengue virus 3 Singapore/8120/1995) of 1480 nM.

With LALITVSGLY the Kd [8, 21] was 12.7 µM and the Kd [1, 21] was 0.00526 µM.

LARVGRERL was tested, and the Kd [5, 23] was 0.298 µM.

Work on LENVMWKQI yielded a Kd [10, 25] of 0.157 µM and a Kd [2, 25] of 0.105 µM.

LESGAVKYL was tested, and the IC50 [4, 20] was at least 222 µM and the IC50 [11, 20] was at least 128 µM.

Sequence LFLRRRCPL has a Kd [3, 24] of 0.125 nM.

In the case of LFMALVAFL, the Kd [15] is reported as 8.2 µM.

For LGKCGSCVY, the Kd [6, 19] was 0.11 µM.

For LGTIYGFIW, the Kd [16] was 0.0063 µM and the Kd [17] was 0.521 µM.

In the case of LLKMPFRMV, the Kd [3, 22] is reported as 7.12 nM.

Work on LLSRYDEHF yielded a Kd [6, 22] of 0.054 µM.
